For orientation: EC50 (read off the curve) means the midpoint of the concentration-response curve. Low values mean an effect from little substance, high ones a need for much substance.

The chains are these.
B1: humanized anti-Cad-11 antibody SDP071 (Vκ2/VH2) (antibody, IgG4, V domains shown)
VH: EVQLVQSGAEVKKPGASVKISCKASGYSFTGYFMNWVKQAPGQGLEWIGRINPYTGDTFYNQKFKGRATLTVDKSTSTAYMELSSLRSEDTAVYYCGRLGSRYWYFDVWGQGTTVTVSS
VL: DVLMTQTPLSSPVTLGQPASISCRSSQSIIHSNGNTYLEWYLQKPGQSPQLLIYKVSNRFSGVPDRFSGSGSGTDFTLKISRVEAEDVGVYYCFQGSHVPWTFGQGTKLEIK
notes: humanized IgG4 (S241P), kappa
B2: humanized anti-Cad-11 antibody SDP061 (Vκ2/VH1) (antibody, IgG4, V domains shown)
VH: B1 VH with A9P, V11L, P41H, T76S, S84V, R87S, T91S
VL: B1 VL
notes: humanized IgG4 (S241P), kappa
B3: humanized anti-Cad-11 antibody SDP031 (Vκ1/VH3) (antibody, IgG4, V domains shown)
VH: B1 VH with K38R
VL: B1 VL with S68T
notes: humanized IgG4 (S241P), kappa
B4: humanized anti-Cad-11 antibody SDP121 (Vκ3/VH2) (antibody, IgG4, V domains shown)
VH: B1 VH
VL: B1 VL with L3V
notes: humanized IgG4 (S241P), kappa
B5: humanized anti-Cad-11 antibody SDP151 (Vκ3/VH5) (antibody, IgG4, V domains shown)
VH: B1 VH with I20V, K38R, A68V, L70I
VL: B1 VL with L3V
notes: humanized IgG4 (S241P), kappa
B6: humanized anti-Cad-11 antibody SDP141 (Vκ3/VH4) (antibody, IgG4, V domains shown)
VH: B1 VH with I20V, K38R, L70I
VL: B1 VL with L3V
notes: humanized IgG4 (S241P), kappa
B7: humanized anti-Cad-11 antibody SDP131 (Vκ3/VH3) (antibody, IgG4, V domains shown)
VH: B1 VH with K38R
VL: B1 VL with L3V
notes: humanized IgG4 (S241P), kappa
B8: humanized anti-Cad-11 antibody SDP111 (Vκ3/VH1) (antibody, IgG4, V domains shown)
VH: B1 VH with A9P, V11L, P41H, T76S, S84V, R87S, T91S
VL: B1 VL with L3V
notes: humanized IgG4 (S241P), kappa
B9: humanized anti-Cad-11 antibody SDP041 (Vκ1/VH4) (antibody, IgG4, V domains shown)
VH: B1 VH with I20V, K38R, L70I
VL: B1 VL with S68T
notes: humanized IgG4 (S241P), kappa
B10: humanized anti-Cad-11 antibody SDP021 (Vκ1/VH2) (antibody, IgG4, V domains shown)
VH: B1 VH
VL: B1 VL with S68T
notes: humanized IgG4 (S241P), kappa
B11: humanized anti-Cad-11 antibody SDP011 (Vκ1/VH1) (antibody, IgG4, V domains shown)
VH: B1 VH with A9P, V11L, P41H, T76S, S84V, R87S, T91S
VL: B1 VL with S68T
notes: humanized IgG4 (S241P), kappa
B12: humanized anti-Cad-11 antibody SDP081 (Vκ2/VH3) (antibody, IgG4, V domains shown)
VH: B1 VH with K38R
VL: B1 VL
notes: humanized IgG4 (S241P), kappa
B13: humanized anti-Cad-11 antibody SDP101 (Vκ2/VH5) (antibody, IgG4, V domains shown)
VH: B1 VH with I20V, K38R, A68V, L70I
VL: B1 VL
notes: humanized IgG4 (S241P), kappa
B14: humanized anti-Cad-11 antibody SDP091 (Vκ2/VH4) (antibody, IgG4, V domains shown)
VH: B1 VH with I20V, K38R, L70I
VL: B1 VL
notes: humanized IgG4 (S241P), kappa

Where a chain is given by its changes, count along the chain named. Numbers in names are those of the source. A value given as a limit tells only on which side of the number the result lay.

The target of one experiment is T1, BSA coupled 37-mer Cad-11 peptide encompassing the Cad-11 immunogen (UniProt P55287 54-90, limits assumed, linked to BSA).
T1 construct: domain: 37-mer peptide encompassing the Cad-11 immunogen; also called Cad-11 antigen; Cad-11 peptide immunogen
T1 peptide (looked up): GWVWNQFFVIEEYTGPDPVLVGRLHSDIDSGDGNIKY
Nature of the experiment: ELISA on BSA coupled 37-mer cadherin peptides, coat 500 ng/ml. The procedure: (§1) A dilution series from 5 μg/ml to 8 ng/ml in a volume of 100 μl/well of each the humanized anti-Cad-11 antibodies were incubated in the peptide coated wells and incubated at 22° C. for 1 hr. Antibody solution was removed from the wells and the plate washed twice with 200 μl/well of 0.05% Tween-PBS at 22° C. and blotted dry. The goat-anti mouse IgG (Pierce # 31432) was added to each well to plate at a 1:1000 dilution, 100 μl/well and incubate at 22° C. for 30 min. The secondary antibody solution was removed and the plate washed twice with 200 μl/well of 0.05% Tween-PBS at 22° C. and blotted dry. The reaction was developed by adding 100 μl/well tetramethylbenzidine (TMB) reagent IgG (Pierce # 34022, 1 step Turbo TMB-ELISA) to plate and developed at 22° C. for 5 min.
The greatest cross reactivity was seen against Cad-8. […] This assay was repeated with the Cad-11, Cad-8 and Cad-18 antigens with a lower antigen coat concentration of 50 ng/ml and a wider dilution series of the SDP051 antibody (FIG. 41B). […] An EC50 for Cad-18 could not be established due to the low level of binding observed.
A general note: An ELISA detects its analyte on a solid surface through an enzyme-linked reagent.
For B1, the “fold greater binding to the Cad-11 antigen than to the related antigens from the other cadherins” value is more than 20 fold.
On the same count and under the same terms, under B2 stands more than 20 fold.
On the same count and under the same terms, under B3 stands more than 20 fold.

The target of a further experiment is T2, recombinant Cad-11 EC1 human IgG1 fusion protein (R&D Systems Cat. No. 1790-CA-050) (human, UniProt P55287 54-617, limits assumed).
T2 construct: Bought protein; the catalogue product may hold more of the extracellular region; also called recombinant human Cad-11 EC1; recombinant human Cad-11 fusion protein; not shown: human IgG1 part of the bought fusion protein
T2 sequence: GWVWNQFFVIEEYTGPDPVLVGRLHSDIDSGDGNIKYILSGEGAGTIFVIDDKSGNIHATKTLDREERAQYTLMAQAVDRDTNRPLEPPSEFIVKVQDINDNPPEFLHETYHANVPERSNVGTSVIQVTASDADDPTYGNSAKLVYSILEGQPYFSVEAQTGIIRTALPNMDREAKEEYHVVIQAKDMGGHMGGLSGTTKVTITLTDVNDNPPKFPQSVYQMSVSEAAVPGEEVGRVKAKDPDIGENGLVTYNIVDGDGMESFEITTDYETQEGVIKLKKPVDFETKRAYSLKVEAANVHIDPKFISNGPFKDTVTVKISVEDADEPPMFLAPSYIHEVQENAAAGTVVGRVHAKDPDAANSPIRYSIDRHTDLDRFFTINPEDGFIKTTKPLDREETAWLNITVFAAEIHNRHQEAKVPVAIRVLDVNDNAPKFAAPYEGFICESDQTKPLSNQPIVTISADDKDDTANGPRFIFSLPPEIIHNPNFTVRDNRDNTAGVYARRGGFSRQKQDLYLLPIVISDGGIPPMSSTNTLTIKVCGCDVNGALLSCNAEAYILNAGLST
Nature of the experiment: competition ELISA: antibody dilution series premixed with biotinylated SYN0012/H1M1 (0.1 µg/ml) on plate-coated recombinant human Cad-11 EC1 fusion protein; OD450 = bound biotinylated SYN0012. The method, then:
(§2) The binding of the purified humanized composite variant antibodies (SDP011 to SDP151) to a recombinant Cad-11 EC1 human IgG1 fusion protein was assessed in a competition binding ELISA. A dilution series from 5 μg/ml to 0.0022 μg/ml of the humanized or control (SYN0012/H1M1) antibodies was premixed with a constant concentration of biotinylated murine anti-Cad-11 antibody, SYN0012/H1M1 (0.1 μg/ml, final concentration), before incubating for 1 hour at room temperature on a Nunc Immuno MaxiSorp 96 well flat bottom microtitre plate (Fisher Cat. No. DIS-971-030J) pre-coated with 0.25 μg/ml recombinant human Cad-11 EC1 (R&D Systems Cat. No. 1790-CA-050) diluted in PBS. The binding of the biotinylated mAb was detected with streptavidin-HRP (Sigma Cat. No. 55512) and tetramethylbenzidine (TMB) substrate (Invitrogen Cat. No. 00-2023).
Regarding B4, the “IC50 (read off the curve)” value was approximately 0.2 µg/mL.
On to B5, for which the “IC50 (read off the curve)” value is approximately 0.2 µg/mL.
The same measure, in the same setting: under B6 stands approximately 0.2 µg/mL; under B7, approximately 0.2 µg/mL.
In the case of B8, the “IC50 (read off the curve)” value was approximately 0.2 µg/mL.

For the next experiment, the target named is T2, recombinant Cad-11 EC1 human IgG1 …. The experiment in a line: competition ELISA on coated recombinant human Cad-11 EC1 fusion protein; competitor biotinylated SYN0012 at 0.1 µg/ml, streptavidin-HRP, OD450. The procedure:
as §2
For the molecule B9, the “IC50 (read off the curve)” value is approximately 0.1 µg/mL.
Still for that read-out and setting: the result for B10 reads approximately 0.1 µg/mL.
Take B11: the “IC50 (read off the curve)” value is approximately 0.2 µg/mL.
Same read-out and setting: under B3 stands approximately 0.2 µg/mL.

In the next experiment the target is T1, BSA coupled 37-mer Cad-11 peptide …. The experiment in a line: ELISA, BSA-coupled 37-mer cadherin peptide coated at 500 ng/ml, antibody titrated, A450. The procedure: as §1, with “Reactibind plates (ThermoScientific) were coated with 500 ng/ml of the BSA coupled cadherin 37-mer peptide (NE peptide) corresponding to Cadherins-7, -8, -9, -11, -18, -20, and -24 in 0.05% Tween (EMD, product code 9480) in PBS (pH 7.2) (Gibco(Invitrogen), #20012) at 100 μl volume/well for overnight at 4° C. The peptide containing solution was removed from the well and the plate blocked with a 2% bovine serum albumin (BSA) in PBS, 200 μl volume/well, for 2 h at 22° C. The plate was then washed twice with 200 μl/well of PBS-Tween 0.05% at 22° C. and blotted dry. A dilution” for “A dilution”
In the case of B12, the “EC50 (read off the curve)” value is approximately 0.08 µg/mL.
The same measure, in the same setting: under B9 stands approximately 0.06 µg/mL; under B4, approximately 0.06 µg/mL; under B13, approximately 0.07 µg/mL.
The same measure, in the same setting: under B5 stands approximately 0.06 µg/mL; under B10, approximately 0.06 µg/mL.
The same measure, in the same setting: under B1 stands approximately 0.07 µg/mL; under B2, approximately 0.06 µg/mL.
Turning to B6, the “EC50 (read off the curve)” value is approximately 0.06 µg/mL.
On the same count and under the same terms, the result for B7 reads approximately 0.07 µg/mL; that for B14, approximately 0.07 µg/mL.
Same read-out and setting: the result for B11 reads approximately 0.07 µg/mL; that for B3, approximately 0.06 µg/mL.
For the molecule B8, the “EC50 (read off the curve)” value is approximately 0.07 µg/mL.

For a further experiment, the target named is T2, recombinant Cad-11 EC1 human IgG1 …. The experiment in a line: competition ELISA on coated recombinant human Cad-11 EC1 fusion; competitor biotinylated SYN0012/H1M1 at 0.1 µg/ml. The procedure:
as §2
The relative IC50 was calculated by dividing the value for the test antibody by that of SYN0012. Antibody expression levels given are for static cultures in T flasks. PI are calculated.
Consider B12, for which the “relative IC50 (IC50 of the test antibody divided by that of SYN0012)” value was 0.42 ratio (column head prints µg/mL).
Consider B9, for which the “relative IC50 (IC50 of the test antibody divided by that of SYN0012)” value is 0.65 ratio (column head prints µg/mL).
On the same count and under the same terms, under B4 stands 0.52 ratio (column head prints µg/mL).
Same read-out and setting: the result for B13 reads 0.53 ratio (column head prints µg/mL); that for B5, 0.72 ratio (column head prints µg/mL); that for B10, 0.67 ratio (column head prints µg/mL).
Take B1: the “relative IC50 (IC50 of the test antibody divided by that of SYN0012)” value is 0.33 ratio (column head prints µg/mL).
On the same count and under the same terms, the result for B2 reads 0.47 ratio (column head prints µg/mL); that for B6, 0.61 ratio (column head prints µg/mL); that for B7, 0.55 ratio (column head prints µg/mL).
The same measure, in the same setting: the result for B14 reads 0.57 ratio (column head prints µg/mL); that for B11, 0.91 ratio (column head prints µg/mL).
In the case of B3, the “relative IC50 (IC50 of the test antibody divided by that of SYN0012)” value is 0.84 ratio (column head prints µg/mL).
Same read-out and setting: the result for B8 reads 0.68 ratio (column head prints µg/mL).

The values above are taken from patent publication US20110045003A1 (SYNOVEX, published 2011).
